Assay results from US20170128554A1 (NEW ENGLAND BIOLABS, published 2017).
Residue numbers refer to the chain shown, from its start. Names may count otherwise.

B1: SNAP-Fbs (wild type Fbs sugar binding domain fused to SNAP-tag) (other)
chain: MGSSHHHHHHGDKDCEMKRTTLDSPLGKLELSGCEQGLHEIKLLGKGTSAADAVEVPAPAAVLGGPEPLMQATAWLNAYFHQPEAIEEFPVPALHHPVFQQESFTRQVLWKLLKVVKFGEVISYQQLAALAGNPAATAAVKTALSGNPVPILIPCHRVVSSSGAVGGYEGGLAVKEWLLAHEGHRLGKPGLGPAAIGAPGSGSGSPAGCQQEGLVPEGGVEEERDHWQQFYFLSKRRRNLLRNPCGEEDLEGWCDVEHGGDGWRVEELPGDSGVEFTHDESVKKYFASSFEWCRKAQVIDLQAEGYWEELLDTTQPAIVVKDWYSGRSDAGCLYELTVKLLSEHENVLAEFSSGQVAVPQDSDGGGWMEISHTFTDYGPGVRFVRFEHGGQDSVYWKGWFGARVTNSSVWVEP
notes: also called SNAP-wtFbs; wtFbs
B2: SNAP-tagged Fbs PPRYR mutant conjugated to BG beads (other)
chain: B1 chain with D271P, S272P, G273R, F290Y, E291R
B3: SNAP-tagged Fbs GYR mutant conjugated to BG beads (other)
chain: B1 chain with S272G, F290Y, E291R
notes: also called S155G+YR

Assays:
[1] = target: Sialylglycopeptide (SGP, Fushimi Pharmaceutical Co.); assay: isothermal titration calorimetry, […] (50 mM NaCl), […]
[2] = target: Sialylglycopeptide (SGP, Fushimi Pharmaceutical Co.); assay: isothermal titration calorimetry, […] (2 M NaCl), […]
[3] = target: T1, SGP-TMR (sialylglycopeptide labeled with two tetramethylrhodamine fluorophores); assay: SGP-TMR pull-down on Fbs beads, low salt volatile buffer, fluorescence
T1 construct: also called sialylated SGP
Method: SNAP-Fbs is efficiently conjugated to BG beads (SNAP Capture Pull-Down resin (New England Biolabs, Ipswich, Mass.): SNAP-Fbs protein is reacted with BG beads at 4° C. overnight in a DTT-containing buffer (4 mM DTT, 20 mM tris-HCl pH 7.5, 1 mM EDTA, 50 mM NaCl). After the conjugation reaction, SNAP-Fbs beads are washed with 40× bead volume of low salt buffer.
Fbs binding to complex N-glycan linked glycomolecules is substantially unbiased in a high salt buffer. SGP was labeled with two tetramethylrhodamine (TMR) fluorophores on the peptide portion via lysine residues according to the TMR protein labeling kit protocol (Genaxxon Bioscience, Ulm Germany). After TMR labeling, a fraction of the SGP-TMR sample was processed with neuraminidase (New England Biolabs, Ipswich, Mass.) to remove terminal sialic acid residues. Two binding conditions (LS, low salt buffer and HS, high salt buffer) were tested. […] TMR Fluorescence in the supernatant was measured using a SpectraMax M5 fluorometer (excitation 555 nm and emission 595 nm with 590 nm cutoff). Binding of SGP-TMR to Fbs (y-axis) is determined by subtracting the fluorescence measured in the bead supernatant from the input fluorescence.
SGP-TMR affinity to the Fbs in low salt volatile buffer was analyzed by a pull-down assay using SNAP Capture Pull-Down resin conjugated with equal amounts of WT, GYR or PPRYR Fbs proteins (FIG. 10B). […]

Row | Binder | Kd [1] [nM] | Kd [2] [nM] | fold increased affinity, against WT Fbs [3] [fold]
1 | B1 | 3000 | 1430 | –
2 | B2 | – | – | 2
3 | B3 | – | – | 3
